Here are results for 5 substances from patent publication US7501496.

A word on the EC50: it is the midpoint of the concentration-response curve. As usually defined, the IC50 is the point on the concentration scale where inhibition reaches its midpoint. The EC50 (read off the curve) is the concentration giving half of the maximal effect. Low values mean a more potent agent, high ones a less potent agent. By Kd is commonly meant a measure of binding affinity in units of concentration. The term koff denotes the first-order rate constant of dissociation. One may read the kon as a measure of how fast the partners come together.

The target of assay [1] is complement factor C1q (recombinant C1q) (human) (UniProt P02745). The experiment in a line: ELISA; coated antibody, recombinant C1q, maximum binding at 10 µg/ml.
Chain of complement factor C1q (recombinant C1q) (human) (P02745 23-245 limits assumed, chain 1 of 3): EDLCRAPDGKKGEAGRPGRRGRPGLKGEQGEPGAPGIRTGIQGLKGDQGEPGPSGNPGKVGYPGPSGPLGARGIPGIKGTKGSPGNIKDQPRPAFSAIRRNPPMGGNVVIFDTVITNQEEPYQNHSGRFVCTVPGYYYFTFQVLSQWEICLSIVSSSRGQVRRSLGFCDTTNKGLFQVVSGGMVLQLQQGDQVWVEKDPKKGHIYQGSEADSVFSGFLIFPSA
Chain of complement factor C1q (recombinant C1q) (human) (P02746 28-253 limits assumed, chain 2 of 3, further chain): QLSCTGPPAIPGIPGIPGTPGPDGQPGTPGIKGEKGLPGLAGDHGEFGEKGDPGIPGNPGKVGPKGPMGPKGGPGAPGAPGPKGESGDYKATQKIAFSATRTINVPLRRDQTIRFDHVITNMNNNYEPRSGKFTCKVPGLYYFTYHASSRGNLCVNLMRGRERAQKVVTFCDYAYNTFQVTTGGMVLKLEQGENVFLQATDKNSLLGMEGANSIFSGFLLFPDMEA
Chain of complement factor C1q (recombinant C1q) (human) (P02747 29-245 limits assumed, chain 3 of 3, further chain): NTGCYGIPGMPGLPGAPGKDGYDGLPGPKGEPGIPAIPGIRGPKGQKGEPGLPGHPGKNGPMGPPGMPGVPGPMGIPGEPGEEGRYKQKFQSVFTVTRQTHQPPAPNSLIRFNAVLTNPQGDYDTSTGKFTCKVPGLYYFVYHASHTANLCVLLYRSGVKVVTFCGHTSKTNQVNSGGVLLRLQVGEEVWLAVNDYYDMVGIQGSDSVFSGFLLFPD
The target in assay [2] is human OX40L expressed on cells (K562-hOX40L cells; HUVEC) (human) (UniProt P23510). Put plainly: FACS on HUVEC; <KLH> 10 µg/ml 24 h, no staining antibody, secondary anti-human IgG-Alexa488 (media control 5.39).
Chain of human OX40L expressed on cells (K562-hOX40L cells; HUVEC) (human) (P23510 whole entry): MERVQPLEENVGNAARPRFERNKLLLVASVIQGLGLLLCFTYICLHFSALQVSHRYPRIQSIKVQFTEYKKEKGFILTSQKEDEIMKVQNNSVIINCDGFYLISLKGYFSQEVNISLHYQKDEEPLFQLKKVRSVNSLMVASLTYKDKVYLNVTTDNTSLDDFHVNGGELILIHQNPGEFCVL
Assay [3] has the same target. Put plainly: FACS on HUVEC; <KLH> 10 µg/ml 2.5 h, no staining antibody, secondary anti-human IgG-Alexa488 (media control 5.17).
For assay [4], the target named is complement factor C1q (recombinant C1q) (human) (UniProt P02745). Put plainly: ELISA; plate coated with serially diluted antibody, recombinant C1q added, anti-C1q detection. In general terms: An ELISA detects its analyte on a solid surface through an enzyme-linked reagent.
Assay [5] addresses activated C3c (generated via activation of C3, from human pooled serum) (human) (UniProt P01024). Put plainly: cell-based or functional assay.
Assay [6] concerns the target human OX40L expressed on cells (K562-hOX40L cells; HUVEC) (human) (UniProt P23510). Put plainly: FACS on HUVEC; TAG-34 10 µg/ml 2.5 h, no restaining, secondary anti-murine IgG-Alexa488 (down-modulation of hOX40L).
The target is the same in assay [7]. Put plainly: FACS on HUVEC; TAG34 10 µg/ml 24 h, restaining with TAG-34, secondary anti-murine IgG-Alexa488 (down-modulation of hOX40L).
For assay [8], the target named is Recombinant soluble human OX40L fused to a Histidine tag (human) (UniProt P23510). The experiment in a line: SPR competition; hOX40L-His (10 nM) preincubated with antibody (0.78-100 nM), injected over immobilized OX40-hFc.
Chain of Recombinant soluble human OX40L fused to a Histidine tag (human) (P23510 51-183): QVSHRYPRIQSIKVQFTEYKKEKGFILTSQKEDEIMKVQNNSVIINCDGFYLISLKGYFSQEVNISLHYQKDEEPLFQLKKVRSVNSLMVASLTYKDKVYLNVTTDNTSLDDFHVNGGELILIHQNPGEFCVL
The target in assay [9] is human OX40L expressed on cells (K562-hOX40L cells; HUVEC) (human) (UniProt P23510). The experiment in a line: FACS on HUVEC; TAG-34 10 µg/ml 24 h, no restaining, secondary anti-murine IgG-Alexa488 (down-modulation of hOX40L).
For assay [10] the target is unchanged. Put plainly: flow cytometry on K562-hOX40L cells, FITC rabbit anti-mouse IgG. A general note: Flow cytometry measures light scatter and fluorescence of single cells or particles in a stream.
Assay [11] shares this target. The experiment in a line: FACS on HUVEC; <KLH> 24 h, then staining with TAG-34, secondary anti-murine IgG-Alexa488.
For assay [12] the target is unchanged. Put plainly: FACS on HUVEC; media control 2.5 h, then staining with TAG-34, secondary anti-murine IgG-Alexa488.
Assay [13] shares this target. Put plainly: FACS on HUVEC; media control 24 h, then staining with TAG-34, secondary anti-murine IgG-Alexa488.
Assay [14] addresses Recombinant soluble human OX40L fused to a Histidine tag (human) (UniProt P23510). The experiment in a line: SPR, Biacore 3000; antibody captured via anti-Fcγ on CM5, hOX40L-His as analyte, 1:1 Langmuir fit. For orientation: Surface plasmon resonance follows binding to a sensor surface in real time, without labels.
Assay [15] addresses human OX40L expressed on cells (K562-hOX40L cells; HUVEC) (human) (UniProt P23510). Put plainly: FACS on HUVEC; <KLH> 2.5 h, then staining with TAG-34, secondary anti-murine IgG-Alexa488.
Assay [16] has the same target. Put plainly: cell-based or functional assay.
The target is the same in assay [17]. The experiment in a line: FACS on HUVEC; TAG34 10 µg/ml 2.5 h, restaining with TAG-34, secondary anti-murine IgG-Alexa488 (down-modulation of hOX40L).
For assay [18] the target is unchanged. The experiment in a line: blocking FACS on K562_OX40L cells: antibody as competitor, blocked ligand Dig-labelled hOX40:hFc, read with anti-digoxigenin-fluorescein.
Assay [19] has as its target human FcγRIIa on stably transfected IIA1.6 cells (human) (UniProt P12318). Put plainly: flow cytometry on IIA1.6 cells with human FcγRIIa, maximum binding at 10 µg/ml.
Assay [20] deals with human FcγRIIb on stably transfected IIA1.6 cells (human) (UniProt P31994). The experiment in a line: flow cytometry on IIA1.6 cells with human FcγRIIb, maximum binding at 10 µg/ml.
Chain of human FcγRIIb on stably transfected IIA1.6 cells (human) (P31994 43-310): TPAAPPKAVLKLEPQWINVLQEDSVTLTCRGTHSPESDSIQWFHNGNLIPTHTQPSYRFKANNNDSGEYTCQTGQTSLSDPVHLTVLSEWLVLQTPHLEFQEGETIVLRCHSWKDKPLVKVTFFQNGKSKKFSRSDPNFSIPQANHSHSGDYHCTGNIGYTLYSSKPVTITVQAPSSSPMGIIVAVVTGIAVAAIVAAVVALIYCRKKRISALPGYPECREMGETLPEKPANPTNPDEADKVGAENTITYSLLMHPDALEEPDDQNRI

Chain of activated C3c (generated via activation of C3, from human pooled serum) (human) (P01024 23-1663 limits assumed): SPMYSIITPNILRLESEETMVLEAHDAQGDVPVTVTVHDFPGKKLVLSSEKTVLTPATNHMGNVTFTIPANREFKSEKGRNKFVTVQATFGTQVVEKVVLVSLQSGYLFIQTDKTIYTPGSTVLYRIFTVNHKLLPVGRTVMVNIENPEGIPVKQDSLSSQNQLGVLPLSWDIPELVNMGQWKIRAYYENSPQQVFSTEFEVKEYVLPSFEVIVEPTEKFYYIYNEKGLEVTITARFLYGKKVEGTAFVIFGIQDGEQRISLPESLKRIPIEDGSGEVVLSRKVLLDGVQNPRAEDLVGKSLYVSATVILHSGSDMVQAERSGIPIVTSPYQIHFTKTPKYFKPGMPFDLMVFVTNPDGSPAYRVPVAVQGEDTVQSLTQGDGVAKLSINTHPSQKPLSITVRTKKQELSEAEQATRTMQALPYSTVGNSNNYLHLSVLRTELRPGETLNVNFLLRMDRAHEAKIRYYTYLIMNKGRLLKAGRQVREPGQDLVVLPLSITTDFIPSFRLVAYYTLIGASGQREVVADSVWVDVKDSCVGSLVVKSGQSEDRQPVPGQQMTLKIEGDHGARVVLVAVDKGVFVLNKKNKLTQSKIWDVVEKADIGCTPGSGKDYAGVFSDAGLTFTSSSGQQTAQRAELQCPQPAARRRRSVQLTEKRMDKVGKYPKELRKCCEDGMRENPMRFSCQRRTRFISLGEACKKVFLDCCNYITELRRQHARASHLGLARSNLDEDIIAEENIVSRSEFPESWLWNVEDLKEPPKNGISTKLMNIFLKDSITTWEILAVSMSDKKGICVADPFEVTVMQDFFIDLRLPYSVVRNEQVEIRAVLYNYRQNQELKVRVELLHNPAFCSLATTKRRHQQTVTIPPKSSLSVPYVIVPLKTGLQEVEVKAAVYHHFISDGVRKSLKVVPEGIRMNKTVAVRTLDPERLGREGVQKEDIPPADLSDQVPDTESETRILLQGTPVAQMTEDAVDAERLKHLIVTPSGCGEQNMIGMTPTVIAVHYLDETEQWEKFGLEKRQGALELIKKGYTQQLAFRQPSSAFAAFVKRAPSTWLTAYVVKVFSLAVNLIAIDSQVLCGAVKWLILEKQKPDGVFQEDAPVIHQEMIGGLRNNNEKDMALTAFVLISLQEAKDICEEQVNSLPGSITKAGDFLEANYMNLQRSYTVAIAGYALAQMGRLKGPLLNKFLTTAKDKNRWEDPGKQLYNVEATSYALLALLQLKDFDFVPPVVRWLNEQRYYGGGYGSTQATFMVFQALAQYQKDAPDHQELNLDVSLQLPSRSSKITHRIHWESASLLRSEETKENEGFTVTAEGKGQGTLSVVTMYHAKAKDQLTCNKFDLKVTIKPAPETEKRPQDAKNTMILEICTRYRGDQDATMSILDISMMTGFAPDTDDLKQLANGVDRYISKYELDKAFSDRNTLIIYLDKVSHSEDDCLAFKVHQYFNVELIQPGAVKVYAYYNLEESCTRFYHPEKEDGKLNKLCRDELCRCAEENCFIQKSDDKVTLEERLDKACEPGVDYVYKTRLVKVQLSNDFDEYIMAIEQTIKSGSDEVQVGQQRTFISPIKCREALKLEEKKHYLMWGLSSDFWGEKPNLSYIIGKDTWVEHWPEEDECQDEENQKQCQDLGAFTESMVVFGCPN
Chain of human FcγRIIa on stably transfected IIA1.6 cells (human) (P12318 34-317): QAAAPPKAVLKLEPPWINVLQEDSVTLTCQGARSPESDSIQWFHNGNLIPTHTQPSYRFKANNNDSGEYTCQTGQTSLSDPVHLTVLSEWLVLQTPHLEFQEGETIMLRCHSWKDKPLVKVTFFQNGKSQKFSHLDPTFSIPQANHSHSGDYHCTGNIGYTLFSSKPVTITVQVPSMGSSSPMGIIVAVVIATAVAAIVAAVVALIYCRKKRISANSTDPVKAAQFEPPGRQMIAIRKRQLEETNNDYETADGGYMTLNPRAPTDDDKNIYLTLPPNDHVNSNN

Regarding “HuMab antibody directed against Keyhole Limpet Hemocyanin (alpha-KLH)”, in assay [1], the Bmax (OD405) amounted to 3.31 OD405. Also, the MFI in [2] was 4.74 MFI. Moreover, the MFI in assay [3] was determined as 4.76 MFI. Moreover, the EC50 in [4] amounted to 2.57 mg/L. In addition, in [5], the C3c deposition ELISA, Bmax (OD405) amounted to 2.63 OD405 and the C3c deposition ELISA, EC50 is 2.16 mg/L.
Consider “Human IgG1 (The Binding Site), control antibody”, for which the Bmax (OD405) in [1] worked out at 2.69 OD405. In addition, in [4], the concentration giving a half-maximal response (EC50) turned out to be 4.17 mg/L. Also, in assay [5], the C3c deposition ELISA, Bmax (OD405) is 2.54 OD405 and the C3c deposition ELISA, EC50 turned out to be 5.45 mg/L.
On to “TAG34, anti-human OX40L monoclonal antibody”, for which the MFI in [6] is 9.44 MFI; in [7] it was 14.9 MFI; in [9], 7.39 MFI; in assay [11] it was 31.6 MFI; in [12], 31.8 MFI; in assay [13], 25.3 MFI. Further, the MFI in assay [15] came out at 30.8 MFI; in assay [17], 8.97 MFI. Besides, the IC50 in [8] turned out to be 7 nM. For the same substance, in assay [10], the EC50 (read off the curve) stood at 2 mg/L. The Kd in assay [14] came to 0.375 nM. For the same substance, in assay [14], the koff turned out to be 3.32e-05 s⁻¹. Moreover, the association rate constant (kon) in assay [14] was found to be 88400 M⁻¹ s⁻¹. The substance also gave an IC50, IL-2 release of PHA-activated PBL co-stimulated with K562 OX40L cells in assay [16] of 70 nM. In addition, the IC50 (read off the curve) in [18] is 1 mg/L.
On to “human IgG3 (The Binding Site), control antibody”, for which the Bmax (MFI) in [19] was 537 MFI; in assay [20], 419 MFI.
On to “human IgG4 (The Binding Site), control antibody”, for which, in [1], the Bmax (OD405) was found to be 0.353 OD405. Further, in [5], the C3c deposition ELISA, Bmax (OD405) came out at 0.095 OD405.
